The results in this text go back to patent US20190153065A1 (published 2019).

The target of assay [1] is PD-L1 mutant G119D (mouse PD-L1-mCherry fusion) (mouse, UniProt Q9EP73 19-290). In words: FACS titration; avid.
Assay [2] deals with PD-L1 mutant K124A (mouse PD-L1-mCherry fusion) (mouse, UniProt Q9EP73 19-290). Put plainly: FACS titration; avid.
For assay [3], the target named is PD-L1 mutant G120D (mouse PD-L1-mCherry fusion) (mouse, UniProt Q9EP73 19-290). Put plainly: FACS titration; avid.
Chain of PD-L1 mutant G120D (mouse PD-L1-mCherry fusion) (Q9EP73 19-290 G120D): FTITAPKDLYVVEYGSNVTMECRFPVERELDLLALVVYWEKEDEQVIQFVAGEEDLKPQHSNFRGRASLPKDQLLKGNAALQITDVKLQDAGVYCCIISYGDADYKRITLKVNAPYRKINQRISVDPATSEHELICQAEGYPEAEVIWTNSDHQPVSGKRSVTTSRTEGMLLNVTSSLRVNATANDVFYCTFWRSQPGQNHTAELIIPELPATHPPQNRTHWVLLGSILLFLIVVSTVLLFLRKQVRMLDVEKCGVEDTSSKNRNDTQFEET
The target of assay [4] is PD-L1 mutant R125A (mouse PD-L1-mCherry fusion) (mouse, UniProt Q9EP73 19-290). In words: FACS titration; avid.
Chain of PD-L1 mutant R125A (mouse PD-L1-mCherry fusion) (Q9EP73 19-290 R125A): as the sequence (Q9EP73 19-290 G120D) above, with D102G, R107A counted along it
The target in assay [5] is PD-L1 mutant D49R (mouse PD-L1-mCherry fusion) (mouse, UniProt Q9EP73 19-290). Put plainly: FACS titration; avid.
Chain of PD-L1 mutant D49R (mouse PD-L1-mCherry fusion) (Q9EP73 19-290 D49R): as the sequence (Q9EP73 19-290 G120D) above, with D31R, D102G counted along it
The target in assay [6] is PD-L1 mutant Y56A (mouse PD-L1-mCherry fusion) (mouse, UniProt Q9EP73 19-290). Put plainly: FACS. On the technique in general: In flow cytometry, cells or beads pass a laser one at a time.
Chain of PD-L1 mutant Y56A (mouse PD-L1-mCherry fusion) (Q9EP73 19-290 Y56A): as the sequence (Q9EP73 19-290 G120D) above, with Y38A, D102G counted along it
Assay [7] concerns the target T1, wild-type mouse PD-L1 mCherry (full-length mouse PD-L1 with C-terminal mCherry, on HEK 293 cells) (mouse, UniProt Q9EP73 19-290). In words: FACS.
Assay [8] addresses D28R. Put plainly: FACS titration; avid.
The target in assay [9] is T1, wild-type mouse PD-L1 mCherry …. Put plainly: FACS titration; avid.
Assay [10] addresses PD-L1 mutant D122A (mouse PD-L1-mCherry fusion) (mouse, UniProt Q9EP73 19-290). In words: FACS titration; avid.
In assay [11] the target is PD-L1 mutant Y123R (mouse PD-L1-mCherry fusion) (mouse, UniProt Q9EP73 19-290). In words: FACS titration; avid.
Chain of PD-L1 mutant Y123R (mouse PD-L1-mCherry fusion) (Q9EP73 19-290 Y123R): as the sequence (Q9EP73 19-290 G120D) above, with D102G, Y105R counted along it

T1 sequence (Q9EP73 19-290): as the sequence (Q9EP73 19-290 G120D) above, with D102G counted along it
Chain of PD-L1 mutant K124A (mouse PD-L1-mCherry fusion) (Q9EP73 19-290 K124A): as the sequence (Q9EP73 19-290 G120D) above, with D102G, K106A counted along it
Chain of PD-L1 mutant D122A (mouse PD-L1-mCherry fusion) (Q9EP73 19-290 D122A): as the sequence (Q9EP73 19-290 G120D) above, with D102G, D104A counted along it
Chain of PD-L1 mutant G119D (mouse PD-L1-mCherry fusion) (Q9EP73 19-290 G119D): as the sequence (Q9EP73 19-290 G120D) above, with G101D, D102G counted along it

B1: wild-type mPD-1 Fc (residues L25-Q167, mIgG2a-10×His) (Fc fusion)
chain (part 1 of 2): LEVPNGPWRSLTFYPAWLTVSEGANATFTCSLSNWSEDLMLNWNRLSPSNQTEKQAAFCNGLSQPVQDARFQIIQLPNRHDFHMNILDTRRNDSGIYLCGAISLHPKAKIEESPGAELVVTERILETSTRYPSPSPKPEGRFQ
chain (part 2 of 2): HHHHHHHHHH
Take B1: the EC50 (in general, the concentration at which the effect is half-maximal) in assay [1] is 2 nM; in assay [2] it was 42.9 nM; in assay [3] it was 2.8 nM; in assay [4] it was 38.8 nM; in assay [5] it was 1.8 nM; in assay [6], 1.9 nM. Besides, the response in assay [7] was half-maximal at 1.8 nM (EC50).

B2: PD-1 (Fc fusion)
chain (part 1 of 2): B1 chain (part 1 of 2)
chain (part 2 of 2): HHHHHHHHHH
In the case of B2, the response in assay [8] was half-maximal at 2.6 nM (EC50).

B3: wild-type mB7-1 Fc (residues D37-K245, mIgG2a-10×His) (Fc fusion)
chain: DVDEQLSKSVKDKVLLPCRYNSPHEDESEDRIYWQKHDKVVLSVIAGKLKVWPEYKNRTLYDNTTYSLIILGLVLSDRGTYSCVVQKKERGTYEVKHLALVKLSIKADFSTPNITESGNPSADTKRITCFASGGFPKPRFSWLENGRELPGINTTISQDPESELYTISSQLDFNTTRNHTIKCLIKYGDAHVSEDFTWEKPPEDPPDSK
modifications: C-terminal mIgG2a Fc-10×His (dimerising carrier), not in the letters
With B3, the EC50 in assay [9] worked out at 39.2 nM; in [2], 54.9 nM; in [4] it was 20.2 nM; in assay [10], 68.2 nM; in assay [11], 7.7 nM.

B4: B7-1 (Fc fusion)
chain: B3 chain
modifications: C-terminal mIgG2a Fc-10×His (dimerising carrier), not in the letters
B4 had a concentration giving a half-maximal response (EC50) in [8] of 18.8 nM.
